Data on seven molecules can be found in patent publication US8926966B1 (Regents of the University of California, priority 1990, dated 2015).

Where two headings read alike, the source gives them in different places.

Test [1] has as its system islet infiltrating T lymphocytes (IITLs). The experiment in a line: ^3H-thymidine incorporation, islet infiltrating T lymphocytes. It is filed as cell-based. On the technique in general: Dividing cells build labelled thymidine or BrdU into new DNA.
A further test deals with splenic lymphocytes. Put plainly: ^3H-thymidine incorporation, splenic lymphocytes. Format: cell-based.
Test [2] relates to IDDM autoantibodies in sera of human patients. Put plainly: Autoantibody reactivity with ^35S labeled GAD65 segments (immunoprecipitation, SDS-PAGE). Format: binding. As to conditions: IDDM patient sera of Table 10. An excerpt: Portions of human GAD65 cDNA were amplified by the polymerase chain reaction (PCR; Saiki, et al., Science, 239:487, 1988) to produce DNA segments encoding three polypeptide segments: amino acid residues 1-224 (segment A); 224-398 (segment B); and 398-585 (segment C). Each construct also contained a T7 promoter, a consensus sequence for the initiation of translation and an initiating methionine codon (Korak, M., J. Cell Biol., 108:229, 1989). Each PCR product was then trascribed in vitro with T7 RNA polymerase and translated in vitro in a rabbit reticulocyte cell-free system in the presence of ^35S-methionine, using conditions recommended by the supplier (Amersham Corp., Arlington Heights, Ill.). Each test serum (30 μl) was incubated with the resulting ^35S labeled-polypeptides. The bound peptides were isolated with PAS and analyzed by SDS-PAGE in 12% polyaacrylamide and autoradiography.

Test [3] relates to NOD mice. The protocol:
1. […] At 12 weeks of age, mice were examined for insulitis and autoantigen reactive T-cells. […] Pancreatic tissue sections were stained by immunoperoxidase techniques for insulin and were counterstained with hematoxylin. Insulitis was scored in a blinded manner by examining 54 to 87 islets on 5 interrupted tissue sections from each pancreas. Proliferative splenic T-cell responses induced by various antigens were performed as described above in Example 4. Data in Table 8 are expressed as the average [^3H]-thymidine label (cpm) incorporated in triplicate cultures.

For test [4], the system named is spleen cells of NOD, BALB/c and (NOD/BALB/c) F1 mice. Particulars: <4 or >16 week old NOD or control BALB/c or (NOD/BALB/c) F1 spleen cells. The protocol:
Incorporation of label was measured by liquid scintillation counting.

The test system of test [5] is NOD mice. The experiment in a line: Insulitis score after tolerization of NOD mice. Format: in vivo, mouse. Particulars: examined at 12 weeks.
Test [6] concerns NOD mice. The experiment in a line: GAD immunization of 8 week old NOD mice, IDDM onset. Format: in vivo, mouse. An excerpt: Breeder mice were purchased from Taconic Farms and housed under specific pathogen-free conditions. Only female NOD mice were used in this study. […] Insulitis is generally observed beginning at 4 weeks of age. […] The incidence of IDDM in female mice is 70-90% by one year of age.
Urine glucose levels were monitored twice weekly. After observing above normal glucose in urea, blood glucose levels were monitored twice weekly.

Test [7] has as its system autoantibodies to GAD in patient sera. The experiment in a line: Immunoprecipitation of ^35S-GAD65 / ^35S-GAD67 by sera drawn prior to IDDM onset. The arrangement: key to band intensity of immunoprecipitated ^35S-GAD: 1 = lowest; 2 = medium; 3 = highest band intensities. Format: binding, human. The protocol: (§1) Islet cells were extracted as previously described by Atkinson, et al. (Lancet, 335:1357-1360, 1990) with the following modifications. […] The protein A Sepharose CL-4B was then boiled in Laemmli sample buffer (Laemmli, Nature, 227:680-685, 1970), and the samples were subjected to SDS-PAGE and fluororadiography (Kodak, X-omat AR5) using Enhance (New England Nuclear). Alternatively, the autoradiographs were analyzed by a BETAGEN (Boston, Mass.) analyzer. Both 64KA positive and negative sera were used in each assay, to serve as interassay controls. All fluororadiographs were analyzed and rated as positive or negative after comparison with the known interassay controls. […] A similar rating procedure was employed for the intensity of bands corresponding to immunoprecipitated ^35S-GAD65 and ^35S-GAD67.
Rat GAD65 and GAD67 cDNAs were subcloned into a bacterial expression system as previously described. Labeling of ^35S-GADs was completed by pulsing IPTG induced bacterium (growing in Minimal Media) for 15 minutes with TRAN ^35S-label (ICN). Cultures were then spun down and resuspended and sonicated in 1 ml of homogenizing buffer (1 mM phenylmethylsulfonyl fluoride (PMSF), 1 mM 2-aminoethylisothiouronium Bromide (AET) and 60 mM potassium phosphate, pH 7.1). After sonication, cell debris was removed by centrifugation and protein concentration was measured (Bradford, Anal. Biochem., 72:248, […]) in the supernatant (supernatant was stored in aliquots at −70° C.).

For test [8], the system named is autoantibodies to the 64 kD autoantigen. The experiment in a line: Prior absorption of IDDM serum, recognition of 64 kD pancreatic polypeptide. As to conditions: human pancreatic islet cell lysate. Format: binding. The protocol: as §1
Prior absorption of these sera with GAD-6 monoclonal, which recognized GAD65 but not GAD67, or with bacterially produced GAD65, abolished the ability of the sera to recognize the 64 kD pancreatic polypeptide. […] In order to investigate the predictive value of GAD65, sera drawn from patients prior to onset of clinical manifestation of IDDM were tested for autoantibodies to GAD65.

“MKSMCPQAQLKVKYL [Poliovirus (SEQ ID NO. 4), reference compound]”: in [1], the “^3H-THYMIDINE INCORPORATION (cpm) BY LYMPHOID CELL POPULATION IITLs” value worked out at 900 cpm. Also, the “^3H-THYMIDINE INCORPORATION (cpm) BY LYMPHOID CELL […]” value in the test on splenic lymphocytes was 22,500 cpm.
Regarding “Segment B: human GAD65 amino acid residues 224-398, in vitro translated, ^35S labeled”, the “patients with antibodies reactive with the segment” value (“patients with antibodies reactive” below) in test [2] came out at 41%.
ARFKMFPEVKEKGMAA [GAD65 (SEQ ID NO. 5)]: the “^3H-THYMIDINE INCORPORATION (cpm) BY LYMPHOID CELL POPULATION IITLs” value in test [1] (3 × 10^4 cells/well, 5 days culture with irradiated spleen cells) is 9,500 cpm. In addition, in test [1] (IITL population), the “IITL proliferative response relative to culture media or polio polypeptide” value stood at 9 fold. The “^3H-THYMIDINE INCORPORATION (cpm) BY LYMPHOID CELL POPULATION SPLEEN” value in the test on splenic lymphocytes (1 × 10^5 cells/well, 5 days culture) was 23,300 cpm.
For the molecule glutamic acid decarboxylase [GAD], the “glucose levels of treated mice” value with NOD mice [3] (all treated mice, n=17, presently 37 weeks old) is “normal glucose levels”. Further, the “insulitis at 30 weeks of age” value in the test with NOD mice [3] (five treated mice sacrificed at 30 weeks, one had very limited peri-insulitis) was “four mice were completely free of insulitis”. Further, the T cell proliferation result in [4] is listed as “did not induce T cell proliferation”. For the same molecule, the “insulitis score of the completely tolerized mice” value in the test on NOD mice [5] (NOD mice, 50 μg i.v. at 3 weeks) was found to be 0.0. For the same molecule, in the test on NOD mice [5] (Table 8A: female NOD mice, i.v. at 3 weeks of age, 50 μg (hsp-p 0.1 μg) in PBS, scale 0-4, mean ± SE), the “Insultis Score” value was 0.1 ± 0.1. For the same molecule, the “significance of delay of diabetes versus β-gal immunized mice” value in the test on NOD mice [6] (25 ug i.p. in IFA at 8 weeks, again every 6 weeks) is given as under 0.02. In the test with NOD mice [6] (FIG. 11), the “onset of IDDM compared to control β-gal immunized mice” value is given as “clear delay in the onset of IDDM”. In the test with NOD mice [6] (of 10 mice, 25 ug i.p. in IFA at 8 weeks, again every 6 weeks), the “immunized mice with no signs of hyperglycemia until 36 weeks in age” value is 8.

B1: Segment C: human GAD65 amino acid residues 398-585, in vitro translated, ^35S labeled (protein)
chain: MMGVPLQCSALLVREEGLMQNCNQMHASYLFQQDKHYDLSYDTGDKALQCGRHVDVFKLWLMWRAKGTTGFEAHVDKCLELAEYLYNIIKNREGYEMVFDGKPQHTNVCFWYIPPSLRTLEDNEERMSRLSKVAPVIKARMMEYGTTMVSYQPLGDKVNFFRMVISNPAATHQDIDFLIEEIERLGQDL
For B1, in [2], the “patients with antibodies reactive” value came out at 27%.

B2: Segment A: human GAD65 amino acid residues 1-224, in vitro translated, ^35S labeled (protein)
chain: MASPGSGFWSFGSEDGSGDSENPGTARAWCQVAQKFTGGIGNKLCALLYGDAEKPAESGGSQPPRAAARKAACACDQKPCSCSKVDVNYAFLHATDLLPACDGERPTLAFLQDVMNILLQYVVKSFDRSTKVIDFHYPNELLQEYNWELADQPQNLEEILMHCQTTLKYAIKTGHPRYFNQLSTGLDMVGLAADWLTSTANTNMFTYEIAPVFVLLEYVTLKKM
On to B2, for which, in test [2], the “patients with antibodies reactive” value is “none”.

B3: GAD65: rat GAD65 expressed in bacteria, ^35S-labeled, in bacterial lysate (protein, UniProt Q05683 1-585, looked up)
Glutamate decarboxylase 2: MASPGSGFWSFGSEDGSGDPENPGTARAWCQVAQKFTGGIGNKLCALLYGDSEKPAESGGSVTSRAATRKVACTCDQKPCSCPKGDVNYALLHATDLLPACEGERPTLAFLQDVMNILLQYVVKSFDRSTKVIDFHYPNELLQEYNWELADQPQNLEEILTHCQTTLKYAIKTGHPRYFNQLSTGLDMVGLAADWLTSTANTNMFTYEIAPVFVLLEYVTLKKMREIIGWPGGSGDGIFSPGGAISNMYAMLIARYKMFPEVKEKGMAAVPRLIAFTSEHSHFSLKKGAAALGIGTDSVILIKCDERGKMIPSDLERRILEVKQKGFVPFLVSATAGTTVYGAFDPLLAVADICKKYKIWMHVDAAWGGGLLMSRKHKWKLNGVERANSVTWNPHKMMGVPLQCSALLVREEGLMQSCNQMHASYLFQQDKHYDLSYDTGDKALQCGRHVDVFKLWLMWRAKGTTGFEAHIDKCLELAEYLYNIIKNREGYEMVFDGKPQHTNVCFWFVPPSLRVLEDNEERMSRLSKVAPVIKARMMEYGTTMVSYQPLGDKVNFFRMVISNPAATHQDIDFLIEEIERLGQDL
modifications: 35S-labeled
notes: rat GAD65 expressed in bacteria, ^35S-labeled, in bacterial lysate
B3 had a specimens immunoreactive in test [7] (9 out of 12 sera drawn prior to IDDM onset) of 75%. For the same molecule, the “band intensity of immunoprecipitated ^35S-GAD” value was found to be 0 in test [7] (serum of patient eight, drawn 8 months before IDDM onset); 1 in test [7] (serum of patient eleven, drawn 10 months before IDDM onset); 1 in test [7] (serum of patient five, drawn 34 months before IDDM onset); 1 in test [7] (serum of patient nine, drawn 42 months before IDDM onset); 1 in test [7] (serum of patient one, drawn 9 months before IDDM onset); 0 in test [7] (serum of patient seven, drawn 3 months before IDDM onset). Moreover, the “band intensity of immunoprecipitated ^35S-GAD” value is reported as 0 in test [7] (serum of patient six, drawn 11 months before IDDM onset); 1 in test [7] (serum of patient ten, drawn 25 months before IDDM onset); 2 in test [7] (serum of patient three, drawn 14 months before IDDM onset); 1 in test [7] (serum of patient twelve, drawn 4 months before IDDM onset); 3 in test [7] (serum of patient two, drawn 6 months before IDDM onset); 1 in test [7] (serum of patient, drawn 66 months before IDDM onset). For the same molecule, the “ability of patient four sera to recognize the 64 kD pancreatic polypeptide after prior absorption” value in [8] is reported as “abolished”.
